Starred links: 1 amine or outer side, 2 acyl side, 3 side chain; linkers in the order of their positions; H or OH if unused. Positions of bridges follow the written chain, without caps; N, C: chain ends. Non-standard residues stand in square brackets, D forms with d. *: point of attachment. pXylylene = c1cc(C[*:2])ccc1C[*:1]; Palmitoyl = CCCCCCCCCCCCCCCC(=O)*; tBuAla = CC(C)(C)C[C@H](N)C(=O)O; Suc = O=C(CCC(=O)[*:2])[*:1]; Hexanoyl = CCCCCC(=O)*; Pentanoyl = CCCCC(=O)*
B1: peptide 6 (peptide)
peptide: Ac-ANYLALIEALIRAAQEQQEKNEAALR-NH2
B2: peptide 91 (peptide)
peptide: Pentanoyl-ECYLRCIEELIRKAQEQQEKNEAALR-NH2
modifications: linker 2-6 via pXylylene
SMILES: CCCCC(=O)N[C@@H](CCC(=O)O)C(=O)N[C@H]1CSCc2ccc(cc2)CSC[C@@H](C(=O)N[C@H](C(=O)N[C@@H](CCC(=O)O)C(=O)N[C@@H](CCC(=O)O)C(=O)N[C@@H](CC(C)C)C(=O)N[C@H](C(=O)N[C@@H](CCCNC(=N)N)C(=O)N[C@@H](CCCCN)C(=O)N[C@@H](C)C(=O)N[C@@H](CCC(N)=O)C(=O)N[C@@H](CCC(=O)O)C(=O)N[C@@H](CCC(N)=O)C(=O)N[C@@H](CCC(N)=O)C(=O)N[C@@H](CCC(=O)O)C(=O)N[C@@H](CCCCN)C(=O)N[C@@H](CC(N)=O)C(=O)N[C@@H](CCC(=O)O)C(=O)N[C@@H](C)C(=O)N[C@@H](C)C(=O)N[C@@H](CC(C)C)C(=O)N[C@@H](CCCNC(=N)N)C(N)=O)[C@@H](C)CC)[C@@H](C)CC)NC(=O)[C@H](CCCNC(=N)N)NC(=O)[C@H](CC(C)C)NC(=O)[C@H](Cc2ccc(O)cc2)NC1=O
B3: peptide 88 (peptide)
peptide: Suc-ECYLRCIEELIRKAQEQQEKNEAALRGSGK(Palmitoyl)-NH2
modifications: linker 2-6 via pXylylene
SMILES: CCCCCCCCCCCCCCCC(=O)NCCCC[C@H](NC(=O)CNC(=O)[C@H](CO)NC(=O)CNC(=O)[C@H](CCCNC(=N)N)NC(=O)[C@H](CC(C)C)NC(=O)[C@H](C)NC(=O)[C@H](C)NC(=O)[C@H](CCC(=O)O)NC(=O)[C@H](CC(N)=O)NC(=O)[C@H](CCCCN)NC(=O)[C@H](CCC(=O)O)NC(=O)[C@H](CCC(N)=O)NC(=O)[C@H](CCC(N)=O)NC(=O)[C@H](CCC(=O)O)NC(=O)[C@H](CCC(N)=O)NC(=O)[C@H](C)NC(=O)[C@H](CCCCN)NC(=O)[C@H](CCCNC(=N)N)NC(=O)[C@@H](NC(=O)[C@H](CC(C)C)NC(=O)[C@H](CCC(=O)O)NC(=O)[C@H](CCC(=O)O)NC(=O)[C@@H](NC(=O)[C@@H]1CSCc2ccc(cc2)CSC[C@H](NC(=O)[C@H](CCC(=O)O)NC(=O)CCC(=O)O)C(=O)N[C@@H](Cc2ccc(O)cc2)C(=O)N[C@@H](CC(C)C)C(=O)N[C@@H](CCCNC(=N)N)C(=O)N1)[C@@H](C)CC)[C@@H](C)CC)C(N)=O
B4: peptide 8 (peptide)
peptide: Ac-ENYLALIEALIRAAQEQQEKNEAALR-NH2
B5: peptide 12 (peptide)
peptide: Suc-[dA]NYLALIEALIRAAQEQQEKNEAAL[dR]-NH2
SMILES: CC[C@H](C)[C@H](NC(=O)[C@H](CC(C)C)NC(=O)[C@H](C)NC(=O)[C@H](CCC(=O)O)NC(=O)[C@@H](NC(=O)[C@H](CC(C)C)NC(=O)[C@H](C)NC(=O)[C@H](CC(C)C)NC(=O)[C@H](Cc1ccc(O)cc1)NC(=O)[C@H](CC(N)=O)NC(=O)[C@@H](C)NC(=O)CCC(=O)O)[C@@H](C)CC)C(=O)N[C@@H](CCCNC(=N)N)C(=O)N[C@@H](C)C(=O)N[C@@H](C)C(=O)N[C@@H](CCC(N)=O)C(=O)N[C@@H](CCC(=O)O)C(=O)N[C@@H](CCC(N)=O)C(=O)N[C@@H](CCC(N)=O)C(=O)N[C@@H](CCC(=O)O)C(=O)N[C@@H](CCCCN)C(=O)N[C@@H](CC(N)=O)C(=O)N[C@@H](CCC(=O)O)C(=O)N[C@@H](C)C(=O)N[C@@H](C)C(=O)N[C@@H](CC(C)C)C(=O)N[C@H](CCCNC(=N)N)C(N)=O
B6: peptide 90 (peptide)
peptide: Suc-ECYLACIEELIRKAQEQQEKNEAALR-NH2
modifications: linker 2-6 via pXylylene
SMILES: CC[C@H](C)[C@H](NC(=O)[C@@H]1CSCc2ccc(cc2)CSC[C@H](NC(=O)[C@H](CCC(=O)O)NC(=O)CCC(=O)O)C(=O)N[C@@H](Cc2ccc(O)cc2)C(=O)N[C@@H](CC(C)C)C(=O)N[C@@H](C)C(=O)N1)C(=O)N[C@@H](CCC(=O)O)C(=O)N[C@@H](CCC(=O)O)C(=O)N[C@@H](CC(C)C)C(=O)N[C@H](C(=O)N[C@@H](CCCNC(=N)N)C(=O)N[C@@H](CCCCN)C(=O)N[C@@H](C)C(=O)N[C@@H](CCC(N)=O)C(=O)N[C@@H](CCC(=O)O)C(=O)N[C@@H](CCC(N)=O)C(=O)N[C@@H](CCC(N)=O)C(=O)N[C@@H](CCC(=O)O)C(=O)N[C@@H](CCCCN)C(=O)N[C@@H](CC(N)=O)C(=O)N[C@@H](CCC(=O)O)C(=O)N[C@@H](C)C(=O)N[C@@H](C)C(=O)N[C@@H](CC(C)C)C(=O)N[C@@H](CCCNC(=N)N)C(N)=O)[C@@H](C)CC
B7: peptide 7 (peptide)
peptide: Suc-ANYLALIEALIRAAQEQQEKNEAALR-NH2
SMILES: CC[C@H](C)[C@H](NC(=O)[C@H](CC(C)C)NC(=O)[C@H](C)NC(=O)[C@H](CCC(=O)O)NC(=O)[C@@H](NC(=O)[C@H](CC(C)C)NC(=O)[C@H](C)NC(=O)[C@H](CC(C)C)NC(=O)[C@H](Cc1ccc(O)cc1)NC(=O)[C@H](CC(N)=O)NC(=O)[C@H](C)NC(=O)CCC(=O)O)[C@@H](C)CC)C(=O)N[C@@H](CCCNC(=N)N)C(=O)N[C@@H](C)C(=O)N[C@@H](C)C(=O)N[C@@H](CCC(N)=O)C(=O)N[C@@H](CCC(=O)O)C(=O)N[C@@H](CCC(N)=O)C(=O)N[C@@H](CCC(N)=O)C(=O)N[C@@H](CCC(=O)O)C(=O)N[C@@H](CCCCN)C(=O)N[C@@H](CC(N)=O)C(=O)N[C@@H](CCC(=O)O)C(=O)N[C@@H](C)C(=O)N[C@@H](C)C(=O)N[C@@H](CC(C)C)C(=O)N[C@@H](CCCNC(=N)N)C(N)=O
B8: peptide 92 (peptide)
peptide: Pentanoyl-ECYLCLIEELIRKAQEQQEKNEAALR-NH2
modifications: linker 2-5 via pXylylene
SMILES: CCCCC(=O)N[C@@H](CCC(=O)O)C(=O)N[C@H]1CSCc2ccc(cc2)CSC[C@@H](C(=O)N[C@@H](CC(C)C)C(=O)N[C@H](C(=O)N[C@@H](CCC(=O)O)C(=O)N[C@@H](CCC(=O)O)C(=O)N[C@@H](CC(C)C)C(=O)N[C@H](C(=O)N[C@@H](CCCNC(=N)N)C(=O)N[C@@H](CCCCN)C(=O)N[C@@H](C)C(=O)N[C@@H](CCC(N)=O)C(=O)N[C@@H](CCC(=O)O)C(=O)N[C@@H](CCC(N)=O)C(=O)N[C@@H](CCC(N)=O)C(=O)N[C@@H](CCC(=O)O)C(=O)N[C@@H](CCCCN)C(=O)N[C@@H](CC(N)=O)C(=O)N[C@@H](CCC(=O)O)C(=O)N[C@@H](C)C(=O)N[C@@H](C)C(=O)N[C@@H](CC(C)C)C(=O)N[C@@H](CCCNC(=N)N)C(N)=O)[C@@H](C)CC)[C@@H](C)CC)NC(=O)[C@H](CC(C)C)NC(=O)[C@H](Cc2ccc(O)cc2)NC1=O
B9: peptide 86 (peptide)
peptide: Hexanoyl-ECYLACIEELIRKAQEQQEKNEAALR-NH2
modifications: linker 2-6 via pXylylene
SMILES: CCCCCC(=O)N[C@@H](CCC(=O)O)C(=O)N[C@H]1CSCc2ccc(cc2)CSC[C@@H](C(=O)N[C@H](C(=O)N[C@@H](CCC(=O)O)C(=O)N[C@@H](CCC(=O)O)C(=O)N[C@@H](CC(C)C)C(=O)N[C@H](C(=O)N[C@@H](CCCNC(=N)N)C(=O)N[C@@H](CCCCN)C(=O)N[C@@H](C)C(=O)N[C@@H](CCC(N)=O)C(=O)N[C@@H](CCC(=O)O)C(=O)N[C@@H](CCC(N)=O)C(=O)N[C@@H](CCC(N)=O)C(=O)N[C@@H](CCC(=O)O)C(=O)N[C@@H](CCCCN)C(=O)N[C@@H](CC(N)=O)C(=O)N[C@@H](CCC(=O)O)C(=O)N[C@@H](C)C(=O)N[C@@H](C)C(=O)N[C@@H](CC(C)C)C(=O)N[C@@H](CCCNC(=N)N)C(N)=O)[C@@H](C)CC)[C@@H](C)CC)NC(=O)[C@H](C)NC(=O)[C@H](CC(C)C)NC(=O)[C@H](Cc2ccc(O)cc2)NC1=O
B10: peptide 10 (peptide)
peptide: Ac-ANYLALIEELIRAAQEQQEKNEAALR-NH2
B11: peptide 89 (peptide)
peptide: Ac-ACYAACIEALIRAAQEQQEKNEAALR-NH2
modifications: linker 2-6 via 1,4‑dimethylnaphthyl
B12: peptide 9 (peptide)
peptide: Ac-ENYLALIEALIRAAQEQQEKNEAALL-NH2
B13: peptide 11 (peptide)
peptide: Suc-ANYLALIEAL[tBuAla]RAAQEQQEKNEAALR-NH2
SMILES: CC[C@H](C)[C@H](NC(=O)[C@H](CC(C)C)NC(=O)[C@H](C)NC(=O)[C@H](CC(C)C)NC(=O)[C@H](Cc1ccc(O)cc1)NC(=O)[C@H](CC(N)=O)NC(=O)[C@H](C)NC(=O)CCC(=O)O)C(=O)N[C@@H](CCC(=O)O)C(=O)N[C@@H](C)C(=O)N[C@@H](CC(C)C)C(=O)N[C@@H](CC(C)(C)C)C(=O)N[C@@H](CCCNC(=N)N)C(=O)N[C@@H](C)C(=O)N[C@@H](C)C(=O)N[C@@H](CCC(N)=O)C(=O)N[C@@H](CCC(=O)O)C(=O)N[C@@H](CCC(N)=O)C(=O)N[C@@H](CCC(N)=O)C(=O)N[C@@H](CCC(=O)O)C(=O)N[C@@H](CCCCN)C(=O)N[C@@H](CC(N)=O)C(=O)N[C@@H](CCC(=O)O)C(=O)N[C@@H](C)C(=O)N[C@@H](C)C(=O)N[C@@H](CC(C)C)C(=O)N[C@@H](CCCNC(=N)N)C(N)=O

Target: gp41 of HIV-1 strain HXB2D with mutation V38A (HIV-1 strain HXB2D, UniProt P04578)
Experiment: cell-based or functional assay

| Binder | fold change in EC50, HIV-HXB2D V38A mutant |
| --- | --- |
| B1 | 51 fold |
| B2 | 2 fold |
| B3 | 1 fold |
| B4 | 46 fold |
| B5 | 51 fold |
| B6 | 6 fold |
| B7 | 33 fold |
| B8 | 2 fold |
| B9 | 2 fold |
| B10 | 50 fold |
| B11 | 75 fold |
| B12 | 72 fold |
| B13 | 26 fold |

From patent publication US20140357577A1, “HIV Membrane Fusion Inhibitors” (priority 2011, published 2014)
